Assay results as given in patent US20080003617A1.

Biological target: A1 domain of von Willebrandt factor (vWf), His-tagged A1 antigen (human) (UniProt P04275)
Test: flow cytometry, yeast-displayed scFv with His-tagged A1 and Alexa-488 anti-His tag

percent of cells positive for A1 binding: 50 to 70%
Substance: scFv of the murine NMC-4 antibody, displayed on yeast (pYD-NMC4-scFv in EBY100) (from UniProt P32781 19-87)
